Assay results from US20200040059A1.

What was measured:
[1] = molecular target: CD28 (human) (UniProt P10747); assay: flow cytometry, transfected cells
[2] = molecular target: PD-L1 (human) (UniProt Q9NZQ7); assay: flow cytometry, transfected cells
[3] = molecular target: human B7-H6 (human) (UniProt Q68D85); assay: flow cytometry, transfected cells
[4] = molecular target: PD-1 on Jurkat/PD-1 cells; assay: flow cytometry on Jurkat/PD-1 cells, 50 nM
[5] = molecular target: PD-1 on Jurkat/PD-1 cells; assay: flow cytometry, 50 nM; ratio to wild type PD-L1 IgV-Fc
[6] = molecular target: human ICOS as used for the 'ICOS OD' read-out of Table 14 (human); assay: binding read as OD; format not described
[7] = molecular target: human CD28, full-length, expressed on transfected Expi293 cells (human) (UniProt P10747); assay: flow cytometry on CD28-expressing Expi293 cells
[8] = molecular target: CD112R (full length, expressed on transfected cells) (human) (UniProt Q6DKI7); assay: flow cytometry on cells expressing the target, 20 nM
[9] = molecular target: T1, CD96 (expressed on cells) (UniProt P40200); assay: as above
T1 sequence (looked up): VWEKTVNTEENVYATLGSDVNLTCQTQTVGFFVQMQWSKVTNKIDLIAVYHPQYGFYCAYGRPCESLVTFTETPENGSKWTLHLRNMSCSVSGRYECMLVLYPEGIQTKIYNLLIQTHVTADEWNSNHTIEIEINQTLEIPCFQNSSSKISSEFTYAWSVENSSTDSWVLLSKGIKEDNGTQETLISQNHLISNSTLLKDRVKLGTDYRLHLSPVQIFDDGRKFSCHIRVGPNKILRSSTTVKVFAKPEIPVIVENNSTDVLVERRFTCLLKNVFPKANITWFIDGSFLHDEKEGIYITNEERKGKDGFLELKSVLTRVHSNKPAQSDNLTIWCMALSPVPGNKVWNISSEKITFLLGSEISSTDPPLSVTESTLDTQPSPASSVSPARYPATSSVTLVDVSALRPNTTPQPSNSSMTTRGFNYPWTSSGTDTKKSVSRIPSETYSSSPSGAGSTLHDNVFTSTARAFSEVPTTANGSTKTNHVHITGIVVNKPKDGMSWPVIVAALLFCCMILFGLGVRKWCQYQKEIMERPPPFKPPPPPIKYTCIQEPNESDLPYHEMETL

[10] = molecular target: human B7-H6, full-length, expressed on transfected Expi293 cells (human) (UniProt Q68D85); assay: flow cytometry on B7-H6-expressing Expi293 cells
[11] = molecular target: PD-1 (Homo sapiens (Human)) (UniProt Q15116); assay: flow cytometry, Jurkat/PD-1 cells
[12] = molecular target: PD-1-Fc; assay: Fortebio (BLI), PD-1-Fc

Sequence of PD-1 (Homo sapiens (Human)) (Q15116 21-288 limits assumed, form in doubt): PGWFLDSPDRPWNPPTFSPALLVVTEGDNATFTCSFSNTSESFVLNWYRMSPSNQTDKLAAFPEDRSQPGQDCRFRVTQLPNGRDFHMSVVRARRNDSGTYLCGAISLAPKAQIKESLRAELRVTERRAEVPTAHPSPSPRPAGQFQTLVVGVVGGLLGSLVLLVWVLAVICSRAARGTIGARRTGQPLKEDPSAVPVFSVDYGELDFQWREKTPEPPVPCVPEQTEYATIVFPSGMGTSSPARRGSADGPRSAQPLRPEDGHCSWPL
Sequence of WT CD112 IgV Fc fusion (Q92692 32-156 limits assumed): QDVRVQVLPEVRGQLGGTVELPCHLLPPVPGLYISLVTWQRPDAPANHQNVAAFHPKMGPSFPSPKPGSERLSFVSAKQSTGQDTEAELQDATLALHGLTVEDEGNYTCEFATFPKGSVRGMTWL
Sequence of Domain 1: CD86 WT / Domain 2: CD80 WT / Fc (Fc fusion) (chain): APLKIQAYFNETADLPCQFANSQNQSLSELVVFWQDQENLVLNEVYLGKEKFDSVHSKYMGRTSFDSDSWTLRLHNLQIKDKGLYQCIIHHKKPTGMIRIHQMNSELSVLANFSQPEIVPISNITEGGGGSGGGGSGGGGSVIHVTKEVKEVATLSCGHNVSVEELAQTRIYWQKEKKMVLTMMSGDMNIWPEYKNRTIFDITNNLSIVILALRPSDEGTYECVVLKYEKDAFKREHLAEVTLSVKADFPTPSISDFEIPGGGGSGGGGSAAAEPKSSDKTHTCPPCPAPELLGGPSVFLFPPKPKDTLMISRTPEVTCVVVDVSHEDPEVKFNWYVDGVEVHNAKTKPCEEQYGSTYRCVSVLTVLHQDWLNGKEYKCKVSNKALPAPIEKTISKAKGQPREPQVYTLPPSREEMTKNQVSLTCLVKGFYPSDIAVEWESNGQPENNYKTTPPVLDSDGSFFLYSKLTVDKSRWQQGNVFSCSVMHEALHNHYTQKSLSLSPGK
Sequence of human ICOS as used for the 'ICOS OD' read-out of Table 14 (human) (Q9Y6W8 whole entry): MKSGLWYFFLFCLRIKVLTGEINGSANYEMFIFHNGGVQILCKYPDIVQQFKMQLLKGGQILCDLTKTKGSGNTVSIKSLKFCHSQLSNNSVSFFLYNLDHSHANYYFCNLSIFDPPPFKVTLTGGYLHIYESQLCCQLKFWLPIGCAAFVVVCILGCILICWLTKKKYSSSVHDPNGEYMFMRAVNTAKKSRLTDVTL
Sequence of human B7-H6 (human) (Q68D85 25-454): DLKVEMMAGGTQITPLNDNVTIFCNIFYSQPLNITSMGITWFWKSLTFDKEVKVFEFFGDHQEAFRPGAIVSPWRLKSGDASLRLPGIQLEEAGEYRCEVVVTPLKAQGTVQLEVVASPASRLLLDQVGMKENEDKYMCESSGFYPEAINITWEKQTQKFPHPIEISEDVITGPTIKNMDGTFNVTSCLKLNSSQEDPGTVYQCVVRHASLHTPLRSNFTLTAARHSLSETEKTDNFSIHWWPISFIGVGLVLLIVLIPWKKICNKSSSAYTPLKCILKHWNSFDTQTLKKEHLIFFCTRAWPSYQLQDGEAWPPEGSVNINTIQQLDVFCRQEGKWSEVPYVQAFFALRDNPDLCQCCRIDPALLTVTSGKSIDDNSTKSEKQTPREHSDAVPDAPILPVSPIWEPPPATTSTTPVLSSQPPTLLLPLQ
Sequence of human B7-H6, full-length, expressed on transfected Expi293 cells (human) (Q68D85 25-454): as above
Sequence of CD112R (full length, expressed on transfected cells) (human) (Q6DKI7 whole entry): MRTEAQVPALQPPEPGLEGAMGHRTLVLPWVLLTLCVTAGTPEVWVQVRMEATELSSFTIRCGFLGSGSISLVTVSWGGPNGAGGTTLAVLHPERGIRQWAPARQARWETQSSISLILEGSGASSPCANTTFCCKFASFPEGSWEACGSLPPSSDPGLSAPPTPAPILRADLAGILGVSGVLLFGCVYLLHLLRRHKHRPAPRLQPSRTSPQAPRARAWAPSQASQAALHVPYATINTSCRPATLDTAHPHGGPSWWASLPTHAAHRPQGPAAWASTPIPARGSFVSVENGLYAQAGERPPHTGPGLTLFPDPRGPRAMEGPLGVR
Sequence of PD-L1 (human) (Q9NZQ7 19-290 limits assumed): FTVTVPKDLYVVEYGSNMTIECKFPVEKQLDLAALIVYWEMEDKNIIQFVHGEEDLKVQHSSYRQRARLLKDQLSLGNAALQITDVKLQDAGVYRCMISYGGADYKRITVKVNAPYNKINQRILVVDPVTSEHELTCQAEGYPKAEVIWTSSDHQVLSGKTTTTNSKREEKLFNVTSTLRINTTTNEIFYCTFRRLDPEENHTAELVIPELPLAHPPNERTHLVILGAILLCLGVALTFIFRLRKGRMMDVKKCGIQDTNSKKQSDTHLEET

| Substance | MFI at 50 nM [4] | Fold increase over wildtype PD-L1 IgV-Fc [5] | MFI at 50 nM [11] | also measured |
| --- | --- | --- | --- | --- |
| Domain 1: CD86 WT / Domain 2: CD80 WT / Fc (Fc fusion) | – | – | – | MFI [1]: 4950; MFI [2]: 1520 |
| Domain 1: CD86 WT / Domain 2: Nkp30 WT / Fc (Fc fusion) | – | – | – | MFI [3]: 129000 |
| Full length PD-L1 Fc (from UniProt Q9NZQ7 19-239) (Fc fusion) | 18500 | 3.5 fold | – | – |
| ICOSL variant N52S/S54P ECD-Fc fusion | – | – | – | ICOS OD [6]: 1.5 OD |
| ICOSL variant N52S/Y152H ECD-Fc fusion | – | – | – | ICOS OD [6]: 0.85 OD; ICOS OD parental ratio (ratio to WT ICOSL ECD-Fc) [6]: 0.99; MFI [7]: 68 MFI; MFI parental ratio (ratio to WT ICOSL ECD-Fc) [7]: 3.78 |
| PD-L1 IgV A33D, S75P Fc fusion (SEQ ID NO 1310) | 1790 | 0.3 fold | – | – |
| PD-L1 IgV I20L, A33D, D43G, N45D, V58A, N78I Fc fusion | 80200 | 15.3 fold | – | – |
| PD-L1 IgV I20L, D43G, N45D, V58A, N78I Fc fusion | 72700 | 13.9 fold | – | – |
| PD-L1 IgV I20L, E27G, N45T, V50A Fc fusion | 29800 | 5.7 fold | – | – |
| WT CD112 IgV Fc fusion (from UniProt Q92692 32-156) | – | – | – | MFI at 20 nM [8]: 1660; MFI at 20 nM [9]: 2500 |
| stacked Fc fusion, Domain 1: NKp30 WT / Domain 2: ICOSL WT | – | – | – | MFI [7]: 6340 MFI; MFI [10]: 64500 MFI |
| variant PD-L2 IgV-Fc H15Q, C23S, I86T (Fc fusion) | – | – | 830 | – |
| variant PD-L2 IgV-Fc H15Q, N24S, T47A, Q72H, R76G, V89D (Fc fusion) | – | – | 32100 | Fortebio binding to PD-1-Fc Response Units (Response Units) [12]: 0.4 |
| variant PD-L2 IgV-Fc H15Q, Q82R, V89D (Fc fusion) | – | – | 49700 | Fortebio binding to PD-1-Fc Response Units (Response Units) [12]: 1.2 |
| variant PD-L2 IgV-Fc H15Q, S67L, I86T (Fc fusion) | – | – | 16000 | – |
| variant PD-L2 IgV-Fc I13V, H15Q, T37A, E44D, S48C, S67L, Q82R, V89D (Fc fusion) | – | – | 47600 | Fortebio binding to PD-1-Fc Response Units (Response Units) [12]: 1.25 |

Further lines, with some results ahead:

| MFI at 50 nM [4] | Fold increase over wildtype PD-L1 IgV-Fc [5] | MFI at 50 nM [11] | Substance | also measured |
| --- | --- | --- | --- | --- |
| 251 | 0 fold | – | PD-L1 IgV A33D, S75P, D104G Fc fusion | – |
| 67000 | 12.8 fold | – | PD-L1 IgV I20L, D43G, N45D, N78I Fc fusion | – |
| 69500 | 13.3 fold | – | PD-L1 IgV I20L, E27G, D43G, N45D, V58A, N78I Fc fusion | – |
| – | – | 614 | variant PD-L2 IgV-Fc E44D, V89D, W91R (Fc fusion) | – |
| – | – | 61000 | variant PD-L2 IgV-Fc I13V, H15Q, E44V, T47A, Q82R, V89D (Fc fusion) | – |
| – | – | 53700 | variant PD-L2 IgV-Fc I13V, H15Q, T47A, R76G, V89D (Fc fusion) | Fortebio binding to PD-1-Fc Response Units (Response Units) [12]: 1.6 |
